These results are taken from patent US20210388087A1 (Chugai, published 2021).

T1: Human CD3eg linker (human)
T1 construct: Single chain: epsilon and gamma subunits of human CD3 joined by a 29-mer linker, Flag-tag at the C-terminus; also called recombinant human CD3
T1 chain: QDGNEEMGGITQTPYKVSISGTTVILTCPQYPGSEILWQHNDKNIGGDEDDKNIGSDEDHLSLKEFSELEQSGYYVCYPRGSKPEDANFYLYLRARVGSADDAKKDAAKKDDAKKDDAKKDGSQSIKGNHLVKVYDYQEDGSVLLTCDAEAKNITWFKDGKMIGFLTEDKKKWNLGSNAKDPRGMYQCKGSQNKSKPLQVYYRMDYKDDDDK

B1: H183/L072 VH K52V (antibody, name in Kabat numbering, V domains shown)
VH: QVQLVESGGGLVQPGRSLRLSCAASGFTFSNAWMHWVRQAPGKGLEWVAQIVDKGNAYAAYYAPSVKGRFTISRDDSKNSIYLQMNSLKTEDTAVYYCHYVHYASASTVLPAFGVDAWGQGTTVTVSS
VL: DIVMTQSPLSLPVTPGEPASISCQASQELVHMNRNTYLHWYQQKPGQAPRLLIYKVSNRFPGVPDRFSGSGSGTDFTLKISRVEAEDVGVYYCAQGTSVPFTFGQGTKLEIK
B2: H183/L072 VH K52bM (antibody, name in Kabat numbering, V domains shown)
VH: QVQLVESGGGLVQPGRSLRLSCAASGFTFSNAWMHWVRQAPGKGLEWVAQIKDMGNAYAAYYAPSVKGRFTISRDDSKNSIYLQMNSLKTEDTAVYYCHYVHYASASTVLPAFGVDAWGQGTTVTVSS
VL: DIVMTQSPLSLPVTPGEPASISCQASQELVHMNRNTYLHWYQQKPGQAPRLLIYKVSNRFPGVPDRFSGSGSGTDFTLKISRVEAEDVGVYYCAQGTSVPFTFGQGTKLEIK
B3: H183/L072 VH K52W (antibody, name in Kabat numbering, V domains shown)
VH: QVQLVESGGGLVQPGRSLRLSCAASGFTFSNAWMHWVRQAPGKGLEWVAQIWDKGNAYAAYYAPSVKGRFTISRDDSKNSIYLQMNSLKTEDTAVYYCHYVHYASASTVLPAFGVDAWGQGTTVTVSS
VL: DIVMTQSPLSLPVTPGEPASISCQASQELVHMNRNTYLHWYQQKPGQAPRLLIYKVSNRFPGVPDRFSGSGSGTDFTLKISRVEAEDVGVYYCAQGTSVPFTFGQGTKLEIK
B4: H183/L072 VH K52bE (antibody, name in Kabat numbering, V domains shown)
VH: QVQLVESGGGLVQPGRSLRLSCAASGFTFSNAWMHWVRQAPGKGLEWVAQIKDEGNAYAAYYAPSVKGRFTISRDDSKNSIYLQMNSLKTEDTAVYYCHYVHYASASTVLPAFGVDAWGQGTTVTVSS
VL: DIVMTQSPLSLPVTPGEPASISCQASQELVHMNRNTYLHWYQQKPGQAPRLLIYKVSNRFPGVPDRFSGSGSGTDFTLKISRVEAEDVGVYYCAQGTSVPFTFGQGTKLEIK
B5: H183/L072 VH K52bQ (antibody, name in Kabat numbering, V domains shown)
VH: QVQLVESGGGLVQPGRSLRLSCAASGFTFSNAWMHWVRQAPGKGLEWVAQIKDQGNAYAAYYAPSVKGRFTISRDDSKNSIYLQMNSLKTEDTAVYYCHYVHYASASTVLPAFGVDAWGQGTTVTVSS
VL: DIVMTQSPLSLPVTPGEPASISCQASQELVHMNRNTYLHWYQQKPGQAPRLLIYKVSNRFPGVPDRFSGSGSGTDFTLKISRVEAEDVGVYYCAQGTSVPFTFGQGTKLEIK
B6: H183/L072 VH K52bP (antibody, name in Kabat numbering, V domains shown)
VH: QVQLVESGGGLVQPGRSLRLSCAASGFTFSNAWMHWVRQAPGKGLEWVAQIKDPGNAYAAYYAPSVKGRFTISRDDSKNSIYLQMNSLKTEDTAVYYCHYVHYASASTVLPAFGVDAWGQGTTVTVSS
VL: DIVMTQSPLSLPVTPGEPASISCQASQELVHMNRNTYLHWYQQKPGQAPRLLIYKVSNRFPGVPDRFSGSGSGTDFTLKISRVEAEDVGVYYCAQGTSVPFTFGQGTKLEIK
B7: H183/L072 VH K52bI (antibody, name in Kabat numbering, V domains shown)
VH: QVQLVESGGGLVQPGRSLRLSCAASGFTFSNAWMHWVRQAPGKGLEWVAQIKDIGNAYAAYYAPSVKGRFTISRDDSKNSIYLQMNSLKTEDTAVYYCHYVHYASASTVLPAFGVDAWGQGTTVTVSS
VL: DIVMTQSPLSLPVTPGEPASISCQASQELVHMNRNTYLHWYQQKPGQAPRLLIYKVSNRFPGVPDRFSGSGSGTDFTLKISRVEAEDVGVYYCAQGTSVPFTFGQGTKLEIK
B8: H183/L072 VH K52Y (antibody, name in Kabat numbering, V domains shown)
VH: QVQLVESGGGLVQPGRSLRLSCAASGFTFSNAWMHWVRQAPGKGLEWVAQIYDKGNAYAAYYAPSVKGRFTISRDDSKNSIYLQMNSLKTEDTAVYYCHYVHYASASTVLPAFGVDAWGQGTTVTVSS
VL: DIVMTQSPLSLPVTPGEPASISCQASQELVHMNRNTYLHWYQQKPGQAPRLLIYKVSNRFPGVPDRFSGSGSGTDFTLKISRVEAEDVGVYYCAQGTSVPFTFGQGTKLEIK
B9: H183/L072 VH K52bF (antibody, name in Kabat numbering, V domains shown)
VH: QVQLVESGGGLVQPGRSLRLSCAASGFTFSNAWMHWVRQAPGKGLEWVAQIKDFGNAYAAYYAPSVKGRFTISRDDSKNSIYLQMNSLKTEDTAVYYCHYVHYASASTVLPAFGVDAWGQGTTVTVSS
VL: DIVMTQSPLSLPVTPGEPASISCQASQELVHMNRNTYLHWYQQKPGQAPRLLIYKVSNRFPGVPDRFSGSGSGTDFTLKISRVEAEDVGVYYCAQGTSVPFTFGQGTKLEIK
B10: H183/L072 VH K52bV (antibody, name in Kabat numbering, V domains shown)
VH: QVQLVESGGGLVQPGRSLRLSCAASGFTFSNAWMHWVRQAPGKGLEWVAQIKDVGNAYAAYYAPSVKGRFTISRDDSKNSIYLQMNSLKTEDTAVYYCHYVHYASASTVLPAFGVDAWGQGTTVTVSS
VL: DIVMTQSPLSLPVTPGEPASISCQASQELVHMNRNTYLHWYQQKPGQAPRLLIYKVSNRFPGVPDRFSGSGSGTDFTLKISRVEAEDVGVYYCAQGTSVPFTFGQGTKLEIK
B11: H183/L072 VH K52bS (antibody, name in Kabat numbering, V domains shown)
VH: QVQLVESGGGLVQPGRSLRLSCAASGFTFSNAWMHWVRQAPGKGLEWVAQIKDSGNAYAAYYAPSVKGRFTISRDDSKNSIYLQMNSLKTEDTAVYYCHYVHYASASTVLPAFGVDAWGQGTTVTVSS
VL: DIVMTQSPLSLPVTPGEPASISCQASQELVHMNRNTYLHWYQQKPGQAPRLLIYKVSNRFPGVPDRFSGSGSGTDFTLKISRVEAEDVGVYYCAQGTSVPFTFGQGTKLEIK
B12: H183/L072 VH K52bN (antibody, name in Kabat numbering, V domains shown)
VH: QVQLVESGGGLVQPGRSLRLSCAASGFTFSNAWMHWVRQAPGKGLEWVAQIKDNGNAYAAYYAPSVKGRFTISRDDSKNSIYLQMNSLKTEDTAVYYCHYVHYASASTVLPAFGVDAWGQGTTVTVSS
VL: DIVMTQSPLSLPVTPGEPASISCQASQELVHMNRNTYLHWYQQKPGQAPRLLIYKVSNRFPGVPDRFSGSGSGTDFTLKISRVEAEDVGVYYCAQGTSVPFTFGQGTKLEIK
B13: H183/L072 VH K52bR (antibody, name in Kabat numbering, V domains shown)
VH: QVQLVESGGGLVQPGRSLRLSCAASGFTFSNAWMHWVRQAPGKGLEWVAQIKDRGNAYAAYYAPSVKGRFTISRDDSKNSIYLQMNSLKTEDTAVYYCHYVHYASASTVLPAFGVDAWGQGTTVTVSS
VL: DIVMTQSPLSLPVTPGEPASISCQASQELVHMNRNTYLHWYQQKPGQAPRLLIYKVSNRFPGVPDRFSGSGSGTDFTLKISRVEAEDVGVYYCAQGTSVPFTFGQGTKLEIK
B14: H183/L072 VH K52bA (antibody, name in Kabat numbering, V domains shown)
VH: QVQLVESGGGLVQPGRSLRLSCAASGFTFSNAWMHWVRQAPGKGLEWVAQIKDAGNAYAAYYAPSVKGRFTISRDDSKNSIYLQMNSLKTEDTAVYYCHYVHYASASTVLPAFGVDAWGQGTTVTVSS
VL: DIVMTQSPLSLPVTPGEPASISCQASQELVHMNRNTYLHWYQQKPGQAPRLLIYKVSNRFPGVPDRFSGSGSGTDFTLKISRVEAEDVGVYYCAQGTSVPFTFGQGTKLEIK
B15: H183/L072 VH K52bD (antibody, name in Kabat numbering, V domains shown)
VH: QVQLVESGGGLVQPGRSLRLSCAASGFTFSNAWMHWVRQAPGKGLEWVAQIKDDGNAYAAYYAPSVKGRFTISRDDSKNSIYLQMNSLKTEDTAVYYCHYVHYASASTVLPAFGVDAWGQGTTVTVSS
VL: DIVMTQSPLSLPVTPGEPASISCQASQELVHMNRNTYLHWYQQKPGQAPRLLIYKVSNRFPGVPDRFSGSGSGTDFTLKISRVEAEDVGVYYCAQGTSVPFTFGQGTKLEIK
B16: H183/L072 VH K52bH (antibody, name in Kabat numbering, V domains shown)
VH: QVQLVESGGGLVQPGRSLRLSCAASGFTFSNAWMHWVRQAPGKGLEWVAQIKDHGNAYAAYYAPSVKGRFTISRDDSKNSIYLQMNSLKTEDTAVYYCHYVHYASASTVLPAFGVDAWGQGTTVTVSS
VL: DIVMTQSPLSLPVTPGEPASISCQASQELVHMNRNTYLHWYQQKPGQAPRLLIYKVSNRFPGVPDRFSGSGSGTDFTLKISRVEAEDVGVYYCAQGTSVPFTFGQGTKLEIK
B17: H183/L072 VH K52bT (antibody, name in Kabat numbering, V domains shown)
VH: QVQLVESGGGLVQPGRSLRLSCAASGFTFSNAWMHWVRQAPGKGLEWVAQIKDTGNAYAAYYAPSVKGRFTISRDDSKNSIYLQMNSLKTEDTAVYYCHYVHYASASTVLPAFGVDAWGQGTTVTVSS
VL: DIVMTQSPLSLPVTPGEPASISCQASQELVHMNRNTYLHWYQQKPGQAPRLLIYKVSNRFPGVPDRFSGSGSGTDFTLKISRVEAEDVGVYYCAQGTSVPFTFGQGTKLEIK
B18: H183/L072 VH K52bG (antibody, name in Kabat numbering, V domains shown)
VH: QVQLVESGGGLVQPGRSLRLSCAASGFTFSNAWMHWVRQAPGKGLEWVAQIKDGGNAYAAYYAPSVKGRFTISRDDSKNSIYLQMNSLKTEDTAVYYCHYVHYASASTVLPAFGVDAWGQGTTVTVSS
VL: DIVMTQSPLSLPVTPGEPASISCQASQELVHMNRNTYLHWYQQKPGQAPRLLIYKVSNRFPGVPDRFSGSGSGTDFTLKISRVEAEDVGVYYCAQGTSVPFTFGQGTKLEIK
B19: H183/L072 VH K52bL (antibody, name in Kabat numbering, V domains shown)
VH: QVQLVESGGGLVQPGRSLRLSCAASGFTFSNAWMHWVRQAPGKGLEWVAQIKDLGNAYAAYYAPSVKGRFTISRDDSKNSIYLQMNSLKTEDTAVYYCHYVHYASASTVLPAFGVDAWGQGTTVTVSS
VL: DIVMTQSPLSLPVTPGEPASISCQASQELVHMNRNTYLHWYQQKPGQAPRLLIYKVSNRFPGVPDRFSGSGSGTDFTLKISRVEAEDVGVYYCAQGTSVPFTFGQGTKLEIK

In the experiment the target is T1, Human CD3eg linker. Kind of experiment: Biacore SPR, vs template H183/L072.
Consider B1, for which the “fold change of affinity” value stood at 0 fold. In the case of B2 it was 0.5 fold; in that of B3, 0 fold; in that of B4, 0.5 fold.

On to B5, for which the “fold change of affinity” value was 0.7 fold. On to B6, for which the “fold change of affinity” value was determined as 0.5 fold.

Consider B7, for which the “fold change of affinity” value was 0.8 fold.

On to B8, for which the “fold change of affinity” value amounted to 0 fold. Then B9, with 0.4 fold. In the case of B10 it was 0.6 fold. With B11, the “fold change of affinity” value is 0.7 fold.

Consider B12, for which the “fold change of affinity” value turned out to be 0.5 fold.

B13: the “fold change of affinity” value was 1.2 fold. Then B14, with 0.7 fold.

Consider B15, for which the “fold change of affinity” value worked out at 0 fold. B16: the “fold change of affinity” value turned out to be 0.7 fold. In the case of B17, the “fold change of affinity” value is 0.3 fold. In the case of B18, the “fold change of affinity” value was determined as 0.8 fold. In the case of B19, the “fold change of affinity” value was found to be 0.6 fold.
